Laboratory results reported in the supplement of paper PMC10567573.

B1: STX5 (parent)
chain: RSEFTLMAKRIGKDLSNTFAKLEK

Variants of: B1
Experiment: protein stability index of a GFP-peptide fusion (GPS, HEK-293T) (PSI 1-6); higher = more stable
Conditions: c terminus: a fixed tail appended
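Further: lentivirally expressed fusions sorted by FACS into six bins by GFP to DsRed ratio, PSI derived from sequencing read proportions per bin multiplied by bin number.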

Which protein stability index does the source give for RSEFTLMAKRIGKDLSNDFAKLEK [T18D] here?
Its protein stability index is 3.07.

Which protein stability index does the source give for RSEFTLMAKRIGKDLSNNFAKLEK [T18N] here?
The protein stability index was 1.27.

With RSEFTLMAKRIGKDLSNWFAKLEK [T18W] as the variant, how does the protein stability index read?
Its protein stability index is 1.96.

With RSEFTLMAKRIGKDLSNCFAKLEK [T18C] as the variant, how does the protein stability index read?
The protein stability index was 2.41.

With RSEFTLMAKRIGKDLSNAFAKLEK [T18A] as the variant, how does the protein stability index read?
Its protein stability index is 2.31.

Which protein stability index does the source give for RSEFTLMAKRIGKDLSNVFAKLEK [T18V] here?
Its protein stability index is 2.21.

For RSEFTLMAKRIGKDLSNMFAKLEK [T18M], which protein stability index is on record?
Its protein stability index is 2.63.

With RSEFTLMAKRIGKDLSNEFAKLEK [T18E] as the variant, how does the protein stability index read?
Its protein stability index is 2.94.

For RSEFTLMAKRIGKDLSNIFAKLEK [T18I], which protein stability index is on record?
Its protein stability index is 3.4.

Which protein stability index does the source give for RSEFTLMAKRIGKDLSNQFAKLEK [T18Q] here?
The protein stability index was 2.02.

For RSEFTLMAKRIGKDLSNFFAKLEK [T18F], which protein stability index is on record?
The protein stability index was 4.45.

For RSEFTLMAKRIGKDLSNSFAKLEK [T18S], which protein stability index is on record?
Its protein stability index is 1.

With RSEFTLMAKRIGKDLSNPFAKLEK [T18P] as the variant, how does the protein stability index read?
The protein stability index was 2.45.

For RSEFTLMAKRIGKDLSNGFAKLEK [T18G], which protein stability index is on record?
Its protein stability index is 3.21.

With RSEFTLMAKRIGKDLSNHFAKLEK [T18H] as the variant, how does the protein stability index read?
Its protein stability index is 2.41.

For RSEFTLMAKRIGKDLSNKFAKLEK [T18K], which protein stability index is on record?
Its protein stability index is 3.25.

For RSEFTLMAKRIGKDLSNYFAKLEK [T18Y], which protein stability index is on record?
The protein stability index was 3.54.

For RSEFTLMAKRIGKDLSNRFAKLEK [T18R], which protein stability index is on record?
Its protein stability index is 1.77.

With RSEFTLMAKRIGKDLSNTFVKLEK [A20V] as the variant, how does the protein stability index read?
The protein stability index was 2.24.

For RSEFTLMAKRIGKDLSNTFDKLEK [A20D], which protein stability index is on record?
The protein stability index was 2.15.

Which protein stability index does the source give for RSEFTLMAKRIGKDLSNTFSKLEK [A20S] here?
The protein stability index was 1.32.

With RSEFTLMAKRIGKDLSNTFPKLEK [A20P] as the variant, how does the protein stability index read?
Its protein stability index is 3.3.

Which protein stability index does the source give for RSEFTLMAKRIGKDLSNTFNKLEK [A20N] here?
Its protein stability index is 1.84.

Which protein stability index does the source give for RSEFTLMAKRIGKDLSNTFMKLEK [A20M] here?
The protein stability index was 2.64.

Which protein stability index does the source give for RSEFTLMAKRIGKDLSNTFEKLEK [A20E] here?
The protein stability index was 1.58.

With RSEFTLMAKRIGKDLSNTFIKLEK [A20I] as the variant, how does the protein stability index read?
The protein stability index was 1.63.

With RSEFTLMAKRIGKDLSNTFTKLEK [A20T] as the variant, how does the protein stability index read?
Its protein stability index is 2.69.

For RSEFTLMAKRIGKDLSNTFCKLEK [A20C], which protein stability index is on record?
Its protein stability index is 3.2.

With RSEFTLMAKRIGKDLSNTFWKLEK [A20W] as the variant, how does the protein stability index read?
The protein stability index was 2.44.

Which protein stability index does the source give for RSEFTLMAKRIGKDLSNTFAKLFK [E23F] here?
The protein stability index was 2.65.

Which protein stability index does the source give for RSEFTLMAKRIGKDLSNTFAKLDK [E23D] here?
The protein stability index was 2.2.

Which protein stability index does the source give for RSEFTLMAKRIGKDLSNTFAKLLK [E23L] here?
Its protein stability index is 3.

Which protein stability index does the source give for RSEFTLMAKRIGKDLSNTFAKLPK [E23P] here?
Its protein stability index is 2.32.

Which protein stability index does the source give for RSEFTLMAKRIGKDLSNTFAKLIK [E23I] here?
The protein stability index was 2.84.

Which protein stability index does the source give for RSEFTLMAKRIGKDLSNTFAKLSK [E23S] here?
The protein stability index was 2.18.

Which protein stability index does the source give for RSEFTLMAKRIGKDLSNTFAKLKK [E23K] here?
Its protein stability index is 5.04.

Which protein stability index does the source give for RSEFTLMAKRIGKDLSNTFAKLHK [E23H] here?
The protein stability index was 3.8.

For RSEFTLMAKRIGKDLSNTFAKLAK [E23A], which protein stability index is on record?
Its protein stability index is 1.98.

With RSEFTLMAKRIGKDLSNTFAKLWK [E23W] as the variant, how does the protein stability index read?
Its protein stability index is 2.37.

Which protein stability index does the source give for RSEFTLMAKRIGKDLSNTFAKLMK [E23M] here?
The protein stability index was 1.34.

Which protein stability index does the source give for RSEFTLMAKRIGKDLSNTFAKLCK [E23C] here?
Its protein stability index is 3.47.

With RSEFTLMAKRIGKDLSNTFAKLEE [K24E] as the variant, how does the protein stability index read?
Its protein stability index is 1.76.

Which protein stability index does the source give for RSEFTLMAKRIGKDLSNTFAKLEQ [K24Q] here?
The protein stability index was 1.66.

With RSEFTLMAKRIGKDLSNTFAKLEG [K24G] as the variant, how does the protein stability index read?
Its protein stability index is 4.41.

For RSEFTLMAKRIGKDLSNTFAKLED [K24D], which protein stability index is on record?
Its protein stability index is 2.61.

For RSEFTLMAKRIGKDLSNTFAKLEV [K24V], which protein stability index is on record?
Its protein stability index is 2.42.

With RSEFTLMAKRIGKDLSNTFAKLEP [K24P] as the variant, how does the protein stability index read?
Its protein stability index is 2.42.

Which protein stability index does the source give for RSEFTLMAKRIGKDLSNTFAKLER [K24R] here?
Its protein stability index is 2.5.

For RSEFTLMAKRIGKDLSNTFAKLES [K24S], which protein stability index is on record?
The protein stability index was 1.63.

Which protein stability index does the source give for RSEFTLMAKRIGKDLSNTFAKLEH [K24H] here?
The protein stability index was 2.46.

With RSEFTLMAKRIGKDLSNTFAKLEY [K24Y] as the variant, how does the protein stability index read?
The protein stability index was 3.59.

With RSEFTLMAKRIGKDLSNTFAKLET [K24T] as the variant, how does the protein stability index read?
Its protein stability index is 3.14.

With RSEFTLMAKRIGKDLSNTFAKLEN [K24N] as the variant, how does the protein stability index read?
The protein stability index was 3.22.

For RSEFTLMAKRIGKDLSNTFAKLEM [K24M], which protein stability index is on record?
The protein stability index was 3.26.

Which protein stability index does the source give for RSEFTLMAKRIGKDLSNTFAKLEL [K24L] here?
The protein stability index was 2.38.

Which protein stability index does the source give for RSEFTLMAKRIGKDLSATFAKLEK [N17A] here?
Its protein stability index is 3.04.

For RSEFTLMAKRIGKDLSPTFAKLEK [N17P], which protein stability index is on record?
Its protein stability index is 2.5.

With RSEFTLMAKRIGKDLSGTFAKLEK [N17G] as the variant, how does the protein stability index read?
Its protein stability index is 3.

Which protein stability index does the source give for RSEFTLMAKRIGKDLSTTFAKLEK [N17T] here?
Its protein stability index is 2.75.

For RSEFTLMAKRIGKDLSDTFAKLEK [N17D], which protein stability index is on record?
The protein stability index was 2.63.

Which protein stability index does the source give for RSEFTLMAKRIGKDLSYTFAKLEK [N17Y] here?
The protein stability index was 1.93.

With RSEFTLMAKRIGKDLSLTFAKLEK [N17L] as the variant, how does the protein stability index read?
The protein stability index was 2.21.

Which protein stability index does the source give for RSEFTLMAKRIGKDLSITFAKLEK [N17I] here?
The protein stability index was 3.01.

With RSEFTLMAKRIGKDLSQTFAKLEK [N17Q] as the variant, how does the protein stability index read?
The protein stability index was 1.61.

For RSEFTLMAKRIGKDLSFTFAKLEK [N17F], which protein stability index is on record?
Its protein stability index is 2.34.

Which protein stability index does the source give for RSEFTLMAKRIGKDLSCTFAKLEK [N17C] here?
The protein stability index was 2.02.

For RSEFTLMAKRIGKDLSSTFAKLEK [N17S], which protein stability index is on record?
Its protein stability index is 3.13.

With RSEFTLMAKRIGKDLSWTFAKLEK [N17W] as the variant, how does the protein stability index read?
The protein stability index was 1.81.

With RSEFTLMAKRIGKDLSETFAKLEK [N17E] as the variant, how does the protein stability index read?
The protein stability index was 3.15.

Which protein stability index does the source give for RSEFTLMAKRIGKDLSNTFAKAEK [L22A] here?
The protein stability index was 2.29.

With RSEFTLMAKRIGKDLSNTFAKSEK [L22S] as the variant, how does the protein stability index read?
Its protein stability index is 3.17.

For RSEFTLMAKRIGKDLSNTFAKGEK [L22G], which protein stability index is on record?
The protein stability index was 3.27.

Which protein stability index does the source give for RSEFTLMAKRIGKDLSNTFAKDEK [L22D] here?
Its protein stability index is 4.25.

Which protein stability index does the source give for RSEFTLMAKRIGKDLSNTFAKYEK [L22Y] here?
The protein stability index was 1.5.

With RSEFTLMAKRIGKDLSNTFAKFEK [L22F] as the variant, how does the protein stability index read?
The protein stability index was 2.67.

For RSEFTLMAKRIGKDLSNTFAKNEK [L22N], which protein stability index is on record?
Its protein stability index is 3.15.

With RSEFTLMAKRIGKDLSNTFAKQEK [L22Q] as the variant, how does the protein stability index read?
The protein stability index was 2.92.

With RSEFTLMAKRIGKDLSNTFAKKEK [L22K] as the variant, how does the protein stability index read?
Its protein stability index is 2.47.

For RSEFTLMAKRIGKDLSNTFAKTEK [L22T], which protein stability index is on record?
The protein stability index was 2.7.

Which protein stability index does the source give for RSEFTLMAKRIGKDLSNTFAKHEK [L22H] here?
Its protein stability index is 2.7.

For RSEFTLMAKRIGKDLSNTFAKIEK [L22I], which protein stability index is on record?
Its protein stability index is 4.01.

With RSEFTLMAKRIGKDLSNTFAKPEK [L22P] as the variant, how does the protein stability index read?
Its protein stability index is 3.06.

Which protein stability index does the source give for RSEFTLMAKRIGKDLSNTFAKMEK [L22M] here?
The protein stability index was 2.58.

For RSEFTLMAKRIGKDLSNTFAKREK [L22R], which protein stability index is on record?
The protein stability index was 2.57.

With RSEFTLMAKRIGKDLSNTFAKCEK [L22C] as the variant, how does the protein stability index read?
The protein stability index was 1.79.

For RSEFTLMAKRIGKDLSNTFAKVEK [L22V], which protein stability index is on record?
The protein stability index was 1.9.

For RSEFTLMAKRIGKDLSNTFAKEEK [L22E], which protein stability index is on record?
Its protein stability index is 3.74.

For RSEFTLMAKRIGKDKSNTFAKLEK [L15K], which protein stability index is on record?
Its protein stability index is 3.24.

With RSEFTLMAKRIGKDVSNTFAKLEK [L15V] as the variant, how does the protein stability index read?
The protein stability index was 1.9.

Which protein stability index does the source give for RSEFTLMAKRIGKDTSNTFAKLEK [L15T] here?
Its protein stability index is 3.27.

For RSEFTLMAKRIGKDHSNTFAKLEK [L15H], which protein stability index is on record?
Its protein stability index is 2.6.

For RSEFTLMAKRIGKDESNTFAKLEK [L15E], which protein stability index is on record?
Its protein stability index is 3.89.

With RSEFTLMAKRIGKDWSNTFAKLEK [L15W] as the variant, how does the protein stability index read?
The protein stability index was 2.05.

With RSEFTLMAKRIGKDGSNTFAKLEK [L15G] as the variant, how does the protein stability index read?
Its protein stability index is 3.75.
